Several values for one entry are separate records, joined by “and”; a condition that tells them apart may be missing. Identical values can stand only once. Like-named read-outs stand apart in the source and are kept apart here.
How the values were obtained:
human serum albumin [1] = target: T1, human serum albumin (human, UniProt P02768 25-609); experiment: SPR at pH 5.0
T1 construct: mature; Bought purified serum albumin; also called HSA; Human albumin
Method: (§1) For analysis at pH 7.0, 6.0, 5.5 and 5.0, a running buffer of 40 mM citric acid, 80 mM sodium phosphate 50 mM NaCl, 3 mM EDTA, 0.05% v/v P20 was used. The required pH was achieved by altering the ratio of citric acid to sodium phosphate. All experiments were performed at 25° C. The antibody samples were captured to the sensor chip surface using either a human F(ab′)₂-specific or human Fc-specific goat Fab (Jackson ImmunoResearch). Covalent immobilisation of the capture antibody was achieved by standard amine coupling chemistry to a level of 6000-7000 response units (RU).
(§2) Each assay cycle consisted of firstly capturing the antibody sample using a 1 min injection, before an association phase consisting of a 3 min injection of albumin, after which dissociation was monitored. After each cycle, the capture surface was regenerated with two 1 min injections of 40 mM HCl followed by 30 s of 5 mM NaOH. The flow rates used were 10 μl/min for capture, 30 μl/min for both the association and dissociation phases, and 10 μl/min for regeneration. A blank flow-cell was used for reference subtraction and buffer-blank injections were included to subtract instrument noise and drift.

human serum albumin [2] = target: T1, human serum albumin; experiment: SPR at pH 5.5
human serum albumin [3] = target: T1, human serum albumin; experiment: SPR at pH 6.0
Method: as §1, §2

human serum albumin [4] = target: T1, human serum albumin; experiment: SPR at pH 7.0
Method: as §1, §2

human serum albumin [5] = target: T1, human serum albumin; experiment: SPR, Fab captured, HSA
Method: as §1, §2

bovine serum albumin = target: T2, bovine serum albumin (bovine, UniProt P02769 25-607); experiment: SPR, Fab captured, albumin titrated
T2 construct: mature; Bought purified serum albumin; also called BSA; Bovine albumin
Method: as §1, §2

cynomolgus serum albumin = target: T3, cynomolgus serum albumin (cynomolgus, UniProt A2V9Z4 25-608); experiment: SPR, Fab captured, albumin titrated
T3 construct: mature; Bought purified serum albumin; also called CSA; Cynomolgus albumin
Method: as §1, §2

mouse serum albumin [6] = target: T4, mouse serum albumin (mouse, UniProt P07724 25-608); experiment: SPR, Fab captured, albumin titrated
T4 construct: mature; Bought purified serum albumin; also called MSA; Mouse albumin
Method: as §1, §2

human serum albumin [7] = target: T1, human serum albumin; experiment: SPR, Fab captured, albumin titrated
Method: as §1, §2

rabbit serum albumin [8] = target: T5, rabbit serum albumin (rabbit, UniProt P49065 25-608); experiment: SPR, Fab captured, albumin titrated
T5 construct: mature; Bought purified serum albumin; also called RbSA; Rabbit albumin
Method: as §1, §2

rat serum albumin [9] = target: T6, rat serum albumin (rat, UniProt P02770 25-608); experiment: SPR, Fab captured, albumin titrated
T6 construct: mature; Bought purified serum albumin; also called RSA; Rat albumin
Method: as §1, §2

mouse serum albumin [10] = target: T4, mouse serum albumin; experiment: SPR
Method: as §1, §2

rabbit serum albumin [11] = target: T5, rabbit serum albumin; experiment: SPR
Method: as §1, §2

rat serum albumin [12] = target: T6, rat serum albumin; experiment: SPR
Method: as §1, §2

human serum albumin [13] = target: T1, human serum albumin; experiment: SPR, Fab captured; albumin taken as HSA
Method: as §2

human serum albumin [14] = target: T1, human serum albumin; experiment: SPR, Fab captured; albumin taken as HSA; remark: listed apart in the source
Method: as §2

human serum albumin [15] = target: T1, human serum albumin; experiment: SPR, Fab captured; albumin taken as HSA; remark: listed apart in the source
Method: as §2

mouse serum albumin [16] = target: T4, mouse serum albumin; experiment: SPR, Fab captured, albumin titrated; remark: listed apart in the source
Method: as §1, §2

human serum albumin [17] = target: T1, human serum albumin; experiment: SPR, Fab captured, albumin titrated; remark: listed apart in the source
Method: as §1, §2

Kd (human serum albumin [1]): 7.1 nM
Kd (human serum albumin [2]): 10.7 nM
Kd (human serum albumin [3]): 12.5 nM
Kd (human serum albumin [4]): 13.3 nM
Kd (human serum albumin [5]): 1.23 nM
koff (human serum albumin [5]): 0.000172 s⁻¹
kon (human serum albumin [5]): 139000 M⁻¹ s⁻¹
binding result (bovine serum albumin): no binding
Kd (cynomolgus serum albumin): 3.3 nM
koff (cynomolgus serum albumin): 0.00035 s⁻¹
kon (cynomolgus serum albumin): 100000 M⁻¹ s⁻¹
Kd (mouse serum albumin [6]): 7.1 nM
koff (mouse serum albumin [6]): 0.00034 s⁻¹
kon (mouse serum albumin [6]): 48000 M⁻¹ s⁻¹
Kd (human serum albumin [7]): 4.6 nM
koff (human serum albumin [7]): 0.00041 s⁻¹
kon (human serum albumin [7]): 90000 M⁻¹ s⁻¹
Kd (rabbit serum albumin [8]): 162 nM
koff (rabbit serum albumin [8]): 0.00029 s⁻¹
kon (rabbit serum albumin [8]): 2000 M⁻¹ s⁻¹
Kd (rat serum albumin [9]): 54 nM
koff (rat serum albumin [9]): 0.0013 s⁻¹
kon (rat serum albumin [9]): 24000 M⁻¹ s⁻¹
fold weaker affinity for MSA than for HSA (mouse serum albumin [10]): 1.2 fold
fold reduction in association rate for RbSA against HSA (rabbit serum albumin [11]): 18 fold
fold lower affinity for RSA than for HSA (rat serum albumin [12]): ~10 fold
Kd (human serum albumin [13]): 2.72 nM and 2.7 nM
koff (human serum albumin [13]): 0.000161 s⁻¹ and 0.000158 s⁻¹
kon (human serum albumin [13]): 59100 M⁻¹ s⁻¹ and 58600 M⁻¹ s⁻¹
Kd (human serum albumin [14]): 2.97 nM and 3.8 nM
koff (human serum albumin [14]): 0.000167 s⁻¹ and 0.000211 s⁻¹
kon (human serum albumin [14]): 56200 M⁻¹ s⁻¹ and 55700 M⁻¹ s⁻¹
Kd (human serum albumin [15]): 2.14 nM and 2.51 nM
koff (human serum albumin [15]): 0.000123 s⁻¹ and 0.00014 s⁻¹
kon (human serum albumin [15]): 57500 M⁻¹ s⁻¹ and 56000 M⁻¹ s⁻¹
Kd (mouse serum albumin [16]): 2.2 nM
koff (mouse serum albumin [16]): 0.00068 s⁻¹
kon (mouse serum albumin [16]): 310000 M⁻¹ s⁻¹
Kd (human serum albumin [17]): 1.8 nM
koff (human serum albumin [17]): 0.0004 s⁻¹
kon (human serum albumin [17]): 220000 M⁻¹ s⁻¹
B1: CA645 gL4gH5 Fab (Fab, V domains shown)
VH: EVQLLESGGGLVQPGGSLRLSCAVSGIDLSNYAINWVRQAPGKGLEWIGIIWASGTTFYATWAKGRFTISRDNSKNTVYLQMNSLRAEDTAVYYCARTVPGYSTAPYFDLWGQGTLVTVSS
VL: DIQMTQSPSSVSASVGDRVTITCQSSPSVWSNFLSWYQQKPGKAPKLLIYEASKLTSGVPSRFSGSGSGTDFTLTISSLQPEDFATYYCGGGYSSISDTTFGGGTKVEIK
notes: Humanized Fab: human gamma1 CH1, human kappa constant region (Km3); parent of all mutants; also called CA645 Fab; Fab_645

Reference: patent US20190144529A1 (UCB, published 2019)
